Our source for the IC50 and Kd values is publication PMC8769072, “Proteome‐scale mapping of binding sites in the unstructured regions of the human proteome” (Molecular Systems Biology, 2022).

[ ]: non-standard residue; d: D form. The star is where a group is joined. FITC = O=C1OC2(c3ccc(O)cc3Oc3cc(O)ccc32)c2ccc(NC(=S)*)cc21; pS = N[C@@H](COP(=O)(O)O)C(=O)O

The target of assay [1] is SFN 14-3-3 (14-3-3 protein sigma) (human) (UniProt P31947). The experiment in a line: fluorescence polarisation; competition: unlabelled peptide in serial dilution against the protein domain (master mix at four times the KD) with its FITC-labelled probe peptide; 50 mM KPO4 or NaPO4 pH 7.5; Ki calculated from IC50.
SFN 14-3-3 (14-3-3 protein sigma) (human), sequence (P31947 whole entry, the tested form may be a part): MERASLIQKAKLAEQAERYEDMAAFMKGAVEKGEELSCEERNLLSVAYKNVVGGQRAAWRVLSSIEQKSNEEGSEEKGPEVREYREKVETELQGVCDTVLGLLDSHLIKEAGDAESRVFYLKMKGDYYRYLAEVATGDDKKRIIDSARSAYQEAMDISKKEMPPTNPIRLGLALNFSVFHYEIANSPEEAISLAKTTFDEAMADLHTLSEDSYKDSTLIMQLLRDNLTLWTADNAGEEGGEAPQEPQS
Assay [2] has the same target. As to the kind of experiment: fluorescence polarisation; direct saturation binding: protein in serial dilution, FITC-labelled probe peptide fixed (master mix 10 nM probe, 2 mM DTT); 50 mM KPO4 or NaPO4 pH 7.5; quadratic fit.

For orientation: IC50 means the point on the concentration scale where inhibition reaches its midpoint. Regarding Ac-NEPTTPSWLADIPPWVP-NH2 [MAP1A 1831-1847 peptide], the IC50 in assay [1] is 1970 µM. The Kd is the equilibrium constant for the complex coming apart. A low value points to higher affinity. Turning to {FITC}-QRST[pS]TPNVH-NH2 [FITC-RAF phosphopeptide probe], the Kd in assay [2] turned out to be 524 µM.
